Test results taken from the supplement of paper PMC6379048.

Tests used:
Test in all cases: EC50 of free RNA motif oligo competing protein binding to immobilised probe
LSM2 = target: T1, LSM2 (UniProt Q9Y333)
T1 sequence: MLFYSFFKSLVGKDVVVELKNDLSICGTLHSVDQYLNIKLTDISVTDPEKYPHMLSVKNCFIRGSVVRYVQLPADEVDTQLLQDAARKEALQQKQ
Outline: (§1)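 Free RNA oligos (0 nM to 30 μM) were pre-incubated with HEK293-FT lysate (2.5 mg protein/well) for 1 h at 4°C, followed by 30 min at 4°C with the same 5′-amino-C6 oligos coupled to NHS-Sepharose beads. Bound proteins were quantified by label-free LC-MS/MS and normalised to the control. EC50 was derived from a four-parameter log-logistic fit, and Kd was obtained by multiplying EC50 by a protein-dependent depletion factor.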

CSTF1 = target: T2, CSTF1 (UniProt Q05048)
T2 sequence: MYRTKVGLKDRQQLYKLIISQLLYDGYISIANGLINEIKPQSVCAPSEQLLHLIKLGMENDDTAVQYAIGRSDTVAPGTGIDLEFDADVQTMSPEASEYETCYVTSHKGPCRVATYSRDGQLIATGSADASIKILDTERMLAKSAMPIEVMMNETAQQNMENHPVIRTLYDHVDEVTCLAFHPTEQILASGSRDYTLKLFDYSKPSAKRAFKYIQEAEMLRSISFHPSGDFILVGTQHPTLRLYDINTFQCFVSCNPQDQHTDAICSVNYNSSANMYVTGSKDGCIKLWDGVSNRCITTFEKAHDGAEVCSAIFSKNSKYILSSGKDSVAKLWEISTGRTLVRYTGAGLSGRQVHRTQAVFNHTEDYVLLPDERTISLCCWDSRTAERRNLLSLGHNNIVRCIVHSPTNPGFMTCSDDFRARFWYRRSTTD
Outline: as §1

MSI1 = MSI1 (UniProt O43347)
Outline: as §1

RPS16 = RPS16 (UniProt P62249)
Outline: as §1

GPATCH3 = target: T3, GPATCH3 (UniProt Q96I76)
T3 sequence: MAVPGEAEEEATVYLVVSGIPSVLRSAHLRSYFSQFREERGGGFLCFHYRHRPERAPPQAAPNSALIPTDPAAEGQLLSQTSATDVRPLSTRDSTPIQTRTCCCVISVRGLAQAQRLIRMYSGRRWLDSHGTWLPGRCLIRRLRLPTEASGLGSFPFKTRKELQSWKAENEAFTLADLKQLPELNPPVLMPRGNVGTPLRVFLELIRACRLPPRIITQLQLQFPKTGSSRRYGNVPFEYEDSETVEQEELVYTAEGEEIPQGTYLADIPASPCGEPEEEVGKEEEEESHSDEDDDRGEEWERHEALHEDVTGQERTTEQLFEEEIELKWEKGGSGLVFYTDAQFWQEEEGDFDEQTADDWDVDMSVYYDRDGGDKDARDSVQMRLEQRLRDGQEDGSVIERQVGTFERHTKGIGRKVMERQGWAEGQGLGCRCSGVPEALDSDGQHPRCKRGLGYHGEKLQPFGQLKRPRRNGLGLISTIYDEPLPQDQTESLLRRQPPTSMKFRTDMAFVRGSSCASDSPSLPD
Outline: as §1

CPSF1 = target: T4, CPSF1 (UniProt Q10570)
T4 sequence: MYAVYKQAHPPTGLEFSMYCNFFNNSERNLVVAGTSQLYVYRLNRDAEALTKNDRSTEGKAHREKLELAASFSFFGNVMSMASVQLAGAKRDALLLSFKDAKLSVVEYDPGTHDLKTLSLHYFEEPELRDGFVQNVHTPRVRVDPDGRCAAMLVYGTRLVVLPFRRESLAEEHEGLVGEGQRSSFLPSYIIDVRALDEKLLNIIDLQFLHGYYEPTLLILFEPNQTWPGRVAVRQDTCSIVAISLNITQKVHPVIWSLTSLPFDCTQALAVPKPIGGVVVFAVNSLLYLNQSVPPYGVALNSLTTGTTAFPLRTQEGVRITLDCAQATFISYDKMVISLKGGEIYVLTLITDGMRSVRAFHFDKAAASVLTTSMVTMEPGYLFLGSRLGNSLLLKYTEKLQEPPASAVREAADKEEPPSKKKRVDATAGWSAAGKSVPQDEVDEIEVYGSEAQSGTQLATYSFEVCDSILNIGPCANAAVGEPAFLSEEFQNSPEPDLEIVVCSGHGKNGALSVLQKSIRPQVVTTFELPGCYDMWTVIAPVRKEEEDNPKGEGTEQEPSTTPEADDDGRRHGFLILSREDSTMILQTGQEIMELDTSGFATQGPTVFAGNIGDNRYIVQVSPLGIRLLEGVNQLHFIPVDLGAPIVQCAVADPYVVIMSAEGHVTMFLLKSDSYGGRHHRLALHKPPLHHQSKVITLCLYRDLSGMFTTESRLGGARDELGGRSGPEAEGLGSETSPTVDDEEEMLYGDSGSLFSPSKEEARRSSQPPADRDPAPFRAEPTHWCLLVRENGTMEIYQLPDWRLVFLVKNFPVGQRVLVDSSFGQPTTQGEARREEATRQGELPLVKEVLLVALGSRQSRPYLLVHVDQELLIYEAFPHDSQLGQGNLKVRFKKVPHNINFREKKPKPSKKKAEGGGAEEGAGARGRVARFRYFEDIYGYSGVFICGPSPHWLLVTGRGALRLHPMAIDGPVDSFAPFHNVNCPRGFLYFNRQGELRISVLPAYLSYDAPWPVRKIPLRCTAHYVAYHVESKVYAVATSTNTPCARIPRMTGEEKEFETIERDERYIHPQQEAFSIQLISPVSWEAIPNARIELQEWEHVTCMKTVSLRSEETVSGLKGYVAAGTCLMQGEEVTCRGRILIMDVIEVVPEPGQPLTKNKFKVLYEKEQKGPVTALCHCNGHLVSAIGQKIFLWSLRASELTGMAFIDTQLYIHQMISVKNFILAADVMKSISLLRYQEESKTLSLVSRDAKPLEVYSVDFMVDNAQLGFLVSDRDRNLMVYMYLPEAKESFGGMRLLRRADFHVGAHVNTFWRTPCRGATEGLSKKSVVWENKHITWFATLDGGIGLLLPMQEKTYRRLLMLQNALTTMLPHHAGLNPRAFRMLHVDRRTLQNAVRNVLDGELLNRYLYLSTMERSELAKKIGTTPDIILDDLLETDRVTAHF
Outline: as §1

Sequence of MSI1 (O43347 whole entry): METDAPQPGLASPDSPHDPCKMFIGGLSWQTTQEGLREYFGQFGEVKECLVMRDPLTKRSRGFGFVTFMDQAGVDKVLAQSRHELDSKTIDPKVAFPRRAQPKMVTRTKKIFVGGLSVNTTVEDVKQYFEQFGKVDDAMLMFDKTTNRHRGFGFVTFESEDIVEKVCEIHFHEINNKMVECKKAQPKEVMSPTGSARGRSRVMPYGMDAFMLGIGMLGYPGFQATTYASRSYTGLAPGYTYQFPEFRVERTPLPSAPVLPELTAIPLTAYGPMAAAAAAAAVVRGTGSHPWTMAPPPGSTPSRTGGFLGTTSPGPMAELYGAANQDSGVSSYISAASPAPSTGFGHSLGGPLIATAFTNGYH

Sequence	EC50 (LSM2)	EC50 (CSTF1)	EC50 (MSI1)	EC50 (RPS16)	EC50 (GPATCH3)	EC50 (CPSF1)
AAUAAA	314 nM	53.9 nM	3500 nM	764 nM	884 nM	64.4 nM
CUGUCCU	–	–	–	175 nM	–	–
UAUUUAU	781 nM	574 nM	487 nM	–	326 nM	1710 nM
